Experimental findings from patent US20140363428A1 (Chugai, published 2014) are described below.

By Kd is commonly meant a measure of binding affinity in units of concentration. A lower Kd goes with tighter binding.

Sequences and labels used below:
B1: IgG1-F1331 (antibody)
heavy: QVQLQESGPGLVKPSETLSLTCAVSGHSISHDHAWSWVRQPPGEGLEWIGFISYSGITNYNPSLQGRVTISRDNSKNTLYLQMNSLRAEDTAVYYCARSLARTTAMDYWGEGTLVTVSSASTKGPSVFPLAPSSKSTSGGTAALGCLVKDYFPEPVTVSWNSGALTSGVHTFPAVLQSSGLYSLSSVVTVPSSSLGTQTYICNVNHKPSNTKVDKKVEPKSCDKTHTCPPCPAPELRRGPKVFLFPPKPKDTLYITREPEVTCVVVDVSHEDPEVKFNWYVDGVEVHNAKTKPREEQYNSTYRVVSVLTVLHQDWLNGKEYKCKVSNKALPAPIEKTISKAKGQPREPQVYTLPPSRDELTKNQVSLTCLVKGFYPSDIAVEWESNGQPENNYKTTPPVLDSDGSFFLYSKLTVDKSRWQQGNVFSCSVMHEALHYHVTRKELSLSP
light: not shown
notes: EU numbering; copies: 2 + 2
B2: IgG1-F1339 (antibody)
heavy: QVQLQESGPGLVKPSETLSLTCAVSGHSISHDHAWSWVRQPPGEGLEWIGFISYSGITNYNPSLQGRVTISRDNSKNTLYLQMNSLRAEDTAVYYCARSLARTTAMDYWGEGTLVTVSSASTKGPSVFPLAPSSKSTSGGTAALGCLVKDYFPEPVTVSWNSGALTSGVHTFPAVLQSSGLYSLSSVVTVPSSSLGTQTYICNVNHKPSNTKVDKKVEPKSCDKTHTCPPCPAPELRGGPKVFLFPPKPKDTLYITREPEVTCVVVDVSHEDPEVKFNWYVDGVEVHNAKTKPREEQYNSTYRVVSVLTVLHQDWLNGKEYKCKVSNKALPAPIEKTISKAKGQPREPQVYTLPPSRDELTKNQVSLTCLVKGFYPSDIAVEWESNGQPENNYKTTPPVLDSDGSFFLYSKLTVDKSRWQQGNVFSCSVMHEALDYHTTKKELSLSP
light: not shown
notes: EU numbering; copies: 2 + 2
B3: IgG1-F1337 (antibody)
heavy: QVQLQESGPGLVKPSETLSLTCAVSGHSISHDHAWSWVRQPPGEGLEWIGFISYSGITNYNPSLQGRVTISRDNSKNTLYLQMNSLRAEDTAVYYCARSLARTTAMDYWGEGTLVTVSSASTKGPSVFPLAPSSKSTSGGTAALGCLVKDYFPEPVTVSWNSGALTSGVHTFPAVLQSSGLYSLSSVVTVPSSSLGTQTYICNVNHKPSNTKVDKKVEPKSCDKTHTCPPCPAPELRGGPKVFLFPPKPKDTLYISREPEVTCVVVDVSHEDPEVKFNWYVDGVEVHNAKTKPREEQYNSTYRVVSVLTVLHQDWLNGKEYKCKVSNKALPAPIEKTISKAKGQPREPQVYTLPPSRDELTKNQVSLTCLVKGFYPSDIAVEWESNGQPENNYKTTPPVLDSDGSFFLYSKLTVDKSRWQQGNVFSCSVMHEALHYHVTKKELSLSP
light: not shown
notes: EU numbering; copies: 2 + 2
B4: IgG1-F1342 (antibody)
heavy: QVQLQESGPGLVKPSETLSLTCAVSGHSISHDHAWSWVRQPPGEGLEWIGFISYSGITNYNPSLQGRVTISRDNSKNTLYLQMNSLRAEDTAVYYCARSLARTTAMDYWGEGTLVTVSSASTKGPSVFPLAPSSKSTSGGTAALGCLVKDYFPEPVTVSWNSGALTSGVHTFPAVLQSSGLYSLSSVVTVPSSSLGTQTYICNVNHKPSNTKVDKKVEPKSCDKTHTCPPCPAPELRGGPKVFLFPPKPKDTLYISREPEVTCVVVDVSHEDPEVKFNWYVDGVEVHNAKTKPREEQYNSTYRVVSVLTVLHQDWLNGKEYKCKVSNKALPAPIEKTISKAKGQPREPQVYTLPPSRDELTKNQVSLTCLVKGFYPSDIAVEWESNGQPENNYKTTPPVLDSDGSFFLYSKLTVDKSRWQQGNVFSCSVMHEALHYHTTKKELSLSP
light: not shown
notes: EU numbering; copies: 2 + 2
B5: IgG1-F1333 (antibody)
heavy: QVQLQESGPGLVKPSETLSLTCAVSGHSISHDHAWSWVRQPPGEGLEWIGFISYSGITNYNPSLQGRVTISRDNSKNTLYLQMNSLRAEDTAVYYCARSLARTTAMDYWGEGTLVTVSSASTKGPSVFPLAPSSKSTSGGTAALGCLVKDYFPEPVTVSWNSGALTSGVHTFPAVLQSSGLYSLSSVVTVPSSSLGTQTYICNVNHKPSNTKVDKKVEPKSCDKTHTCPPCPAPELRRGPKVFLFPPKPKDTLYISRTPEVTCVVVDVSHEDPEVKFNWYVDGVEVHNAKTKPREEQYNSTYRVVSVLTVLHQDWLNGKEYKCKVSNKALPAPIEKTISKAKGQPREPQVYTLPPSRDELTKNQVSLTCLVKGFYPSDIAVEWESNGQPENNYKTTPPVLDSDGSFFLYSKLTVDKSRWQQGNVFSCSVMHEALHYHVTQKSLSLSP
light: not shown
notes: EU numbering; copies: 2 + 2
B6: IgG1-F1341 (antibody)
heavy: QVQLQESGPGLVKPSETLSLTCAVSGHSISHDHAWSWVRQPPGEGLEWIGFISYSGITNYNPSLQGRVTISRDNSKNTLYLQMNSLRAEDTAVYYCARSLARTTAMDYWGEGTLVTVSSASTKGPSVFPLAPSSKSTSGGTAALGCLVKDYFPEPVTVSWNSGALTSGVHTFPAVLQSSGLYSLSSVVTVPSSSLGTQTYICNVNHKPSNTKVDKKVEPKSCDKTHTCPPCPAPELRGGPKVFLFPPKPKDTLYITRTPEVTCVVVDVSHEDPEVKFNWYVDGVEVHNAKTKPREEQYNSTYRVVSVLTVLHQDWLNGKEYKCKVSNKALPAPIEKTISKAKGQPREPQVYTLPPSRDELTKNQVSLTCLVKGFYPSDIAVEWESNGQPENNYKTTPPVLDSDGSFFLYSKLTVDKSRWQQGNVFSCSVMHEALHYHTTKKELSLSP
light: not shown
notes: EU numbering; copies: 2 + 2
B7: IgG1-F1336 (antibody)
heavy: QVQLQESGPGLVKPSETLSLTCAVSGHSISHDHAWSWVRQPPGEGLEWIGFISYSGITNYNPSLQGRVTISRDNSKNTLYLQMNSLRAEDTAVYYCARSLARTTAMDYWGEGTLVTVSSASTKGPSVFPLAPSSKSTSGGTAALGCLVKDYFPEPVTVSWNSGALTSGVHTFPAVLQSSGLYSLSSVVTVPSSSLGTQTYICNVNHKPSNTKVDKKVEPKSCDKTHTCPPCPAPELRRGPKVFLFPPKPKDTLYISREPEVTCVVVDVSHEDPEVKFNWYVDGVEVHNAKTKPREEQYNSTYRVVSVLTVLHQDWLNGKEYKCKVSNKALPAPIEKTISKAKGQPREPQVYTLPPSRDELTKNQVSLTCLVKGFYPSDIAVEWESNGQPENNYKTTPPVLDSDGSFFLYSKLTVDKSRWQQGNVFSCSVMHEALHYHVTKKDLSLSP
light: not shown
notes: EU numbering; copies: 2 + 2
B8: IgG1-F1338 (antibody)
heavy: QVQLQESGPGLVKPSETLSLTCAVSGHSISHDHAWSWVRQPPGEGLEWIGFISYSGITNYNPSLQGRVTISRDNSKNTLYLQMNSLRAEDTAVYYCARSLARTTAMDYWGEGTLVTVSSASTKGPSVFPLAPSSKSTSGGTAALGCLVKDYFPEPVTVSWNSGALTSGVHTFPAVLQSSGLYSLSSVVTVPSSSLGTQTYICNVNHKPSNTKVDKKVEPKSCDKTHTCPPCPAPELRGGPKVFLFPPKPKDTLYISREPEVTCVVVDVSHEDPEVKFNWYVDGVEVHNAKTKPREEQYNSTYRVVSVLTVLHQDWLNGKEYKCKVSNKALPAPIEKTISKAKGQPREPQVYTLPPSRDELTKNQVSLTCLVKGFYPSDIAVEWESNGQPENNYKTTPPVLDSDGSFFLYSKLTVDKSRWQQGNVFSCSVMHEALDYHVTKKELSLSP
light: not shown
notes: EU numbering; copies: 2 + 2
B9: IgG1-F1334 (antibody)
heavy: QVQLQESGPGLVKPSETLSLTCAVSGHSISHDHAWSWVRQPPGEGLEWIGFISYSGITNYNPSLQGRVTISRDNSKNTLYLQMNSLRAEDTAVYYCARSLARTTAMDYWGEGTLVTVSSASTKGPSVFPLAPSSKSTSGGTAALGCLVKDYFPEPVTVSWNSGALTSGVHTFPAVLQSSGLYSLSSVVTVPSSSLGTQTYICNVNHKPSNTKVDKKVEPKSCDKTHTCPPCPAPELRRGPKVFLFPPKPKDTLYISRTPEVTCVVVDVSHEDPEVKFNWYVDGVEVHNAKTKPREEQYNSTYRVVSVLTVLHQDWLNGKEYKCKVSNKALPAPIEKTISKAKGQPREPQVYTLPPSRDELTKNQVSLTCLVKGFYPSDIAVEWESNGQPENNYKTTPPVLDSDGSFFLYSKLTVDKSRWQQGNVFSCSVMHEALHYHVTKKDLSLSP
light: not shown
notes: EU numbering; copies: 2 + 2
B10: IgG1-F1340 (antibody)
heavy: QVQLQESGPGLVKPSETLSLTCAVSGHSISHDHAWSWVRQPPGEGLEWIGFISYSGITNYNPSLQGRVTISRDNSKNTLYLQMNSLRAEDTAVYYCARSLARTTAMDYWGEGTLVTVSSASTKGPSVFPLAPSSKSTSGGTAALGCLVKDYFPEPVTVSWNSGALTSGVHTFPAVLQSSGLYSLSSVVTVPSSSLGTQTYICNVNHKPSNTKVDKKVEPKSCDKTHTCPPCPAPELRGGPKVFLFPPKPKDTLYITREPEVTCVVVDVSHEDPEVKFNWYVDGVEVHNAKTKPREEQYNSTYRVVSVLTVLHQDWLNGKEYKCKVSNKALPAPIEKTISKAKGQPREPQVYTLPPSRDELTKNQVSLTCLVKGFYPSDIAVEWESNGQPENNYKTTPPVLDSDGSFFLYSKLTVDKSRWQQGNVFSCSVMHEALHYHVTKKELSLSP
light: not shown
notes: EU numbering; copies: 2 + 2
B11: IgG1-F1343 (antibody)
heavy: QVQLQESGPGLVKPSETLSLTCAVSGHSISHDHAWSWVRQPPGEGLEWIGFISYSGITNYNPSLQGRVTISRDNSKNTLYLQMNSLRAEDTAVYYCARSLARTTAMDYWGEGTLVTVSSASTKGPSVFPLAPSSKSTSGGTAALGCLVKDYFPEPVTVSWNSGALTSGVHTFPAVLQSSGLYSLSSVVTVPSSSLGTQTYICNVNHKPSNTKVDKKVEPKSCDKTHTCPPCPAPELRGGPKVFLFPPKPKDTLYITREPEVTCVVVDVSHEDPEVKFNWYVDGVEVHNAKTKPREEQYNSTYRVVSVLTVLHQDWLNGKEYKCKVSNKALPAPIEKTISKAKGQPREPQVYTLPPSRDELTKNQVSLTCLVKGFYPSDIAVEWESNGQPENNYKTTPPVLDSDGSFFLYSKLTVDKSRWQQGNVFSCSVMHEALHYHTTKKELSLSP
light: not shown
notes: EU numbering; copies: 2 + 2
B12: IgG1-F1335 (antibody)
heavy: QVQLQESGPGLVKPSETLSLTCAVSGHSISHDHAWSWVRQPPGEGLEWIGFISYSGITNYNPSLQGRVTISRDNSKNTLYLQMNSLRAEDTAVYYCARSLARTTAMDYWGEGTLVTVSSASTKGPSVFPLAPSSKSTSGGTAALGCLVKDYFPEPVTVSWNSGALTSGVHTFPAVLQSSGLYSLSSVVTVPSSSLGTQTYICNVNHKPSNTKVDKKVEPKSCDKTHTCPPCPAPELRRGPKVFLFPPKPKDTLYITRTPEVTCVVVDVSHEDPEVKFNWYVDGVEVHNAKTKPREEQYNSTYRVVSVLTVLHQDWLNGKEYKCKVSNKALPAPIEKTISKAKGQPREPQVYTLPPSRDELTKNQVSLTCLVKGFYPSDIAVEWESNGQPENNYKTTPPVLDSDGSFFLYSKLTVDKSRWQQGNVFSCSVMHEALHYHVTKKDLSLSP
light: not shown
notes: EU numbering; copies: 2 + 2

The target of the experiment is T1, soluble human FcRn (human, UniProt P55899 24-297; P61769 21-119).
T1 construct: Heterodimer of FcRn alpha chain and beta2-microglobulin; also called hFcRn
T1 sequence (P55899 24-297 limits assumed, chain 1 of 2): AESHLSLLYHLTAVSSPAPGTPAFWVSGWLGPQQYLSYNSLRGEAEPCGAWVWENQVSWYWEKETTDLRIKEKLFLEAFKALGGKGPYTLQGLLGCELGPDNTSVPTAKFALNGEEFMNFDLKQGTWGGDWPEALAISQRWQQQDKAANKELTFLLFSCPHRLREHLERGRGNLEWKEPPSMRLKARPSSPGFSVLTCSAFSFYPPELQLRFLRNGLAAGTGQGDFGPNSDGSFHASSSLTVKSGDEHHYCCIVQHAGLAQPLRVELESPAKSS
T1 sequence (P61769 21-119 limits assumed, chain 2 of 2): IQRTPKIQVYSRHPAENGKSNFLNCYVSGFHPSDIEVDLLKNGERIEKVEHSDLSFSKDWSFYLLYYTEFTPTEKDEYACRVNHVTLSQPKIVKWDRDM
Briefly: SPR (Biacore T100), antibody captured by protein L, hFcRn as analyte, pH 7.0, 25 C.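 Note: KD calculated from fitted association and dissociation rate constants of the sensorgrams, protein L amine-coupled to the sensor chip, sodium phosphate running buffer with NaCl and Tween20.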
Protocol: An appropriate amount of protein L (ACTIGEN) was immobilized onto Sensor chip CM4 (GE Healthcare) by the amino coupling method, and the chip was allowed to capture an antibody of interest. Then, diluted FcRn solutions and running buffer (as a reference solution) were injected to allow human FcRn to interact with the antibody captured on the sensor chip. The running buffer used comprised 50 mmol/l sodium phosphate, 150 mmol/l NaCl, and 0.05% (w/v) Tween20 (pH 7.0). FcRn was diluted using each buffer. The chip was regenerated using 10 mmol/l glycine-HCl (pH 1.5). Assays were carried out exclusively at 25 degrees C. The association rate constant ka (1/Ms) and dissociation rate constant kd (1/s), both of which are kinetic parameters, were calculated based on the sensorgrams obtained in the assays, and KD (M) of each antibody for human FcRn was determined from these values. Each parameter was calculated using Biacore T100 Evaluation Software (GE Healthcare).
The molecule B1 came in with a Kd of 77 nM.

B2 gave a dissociation constant Kd of 250 nM.

B3 displayed a Kd of 74 nM.

B4 gave a Kd of 250 nM. This Kd is about 3.4-fold higher than that of the molecule before.

The molecule B5 returned a Kd of 120 nM.

B6 had a Kd of 320 nM.

As to B7, the affinity, expressed as Kd, was 72 nM.

As to B8, the Kd was determined as 100 nM.

B9 came in with a Kd of 100 nM. That is a sub-micromolar value.

Consider B10, for which the dissociation constant (Kd) was 56 nM.

Consider B11, for which the Kd turned out to be 200 nM.

Molecule B12 came in with a Kd of 88 nM.
